{"source": "patent US20230416341A1", "about": "“IMPROVED THROMBIN INHIBITORS FOR TREATMENT OF THROMBOEMBOLIC CONDITIONS” (priority 2020, published 2023)", "binders": {"B1": {"name": "SEQ ID No:2 (MDL-1) Y33 (sulfated at Y33) (peptide)", "peptide": "YPERDSAKDGNEEQERALPVNVQERGEVADADYDDYDEEGTTPTVDPTAQTARPRLQGNQS", "modifications": "not checked"}, "B2": {"name": "SEQ ID No:2 (MDL-1) DS (sulfated at Y33 and Y36) (peptide)", "peptide": "B1 peptide", "modifications": "not checked"}, "B3": {"name": "SEQ ID No:2 (MDL-1) Y36 (sulfated at Y36) (peptide)", "peptide": "B1 peptide", "modifications": "not checked"}, "B4": {"name": "SEQ ID No:2 (MDL-1) Un (unsulfated) (protein)", "chain": "B1 peptide"}, "B5": {"name": "SEQ ID No:1 (MDL-2) Y32 (sulfated at Y32) (peptide)", "chain": "YPESDSAKDDGNQEKEKALLVKVQERSDDGDYDEYDNDETTHTPDPSAPTARPRIREHQA"}, "B6": {"name": "SEQ ID No:1 (MDL-2) Y35 (sulfated at Y35) (peptide)", "chain": "B5 chain"}, "B7": {"name": "SEQ ID No:1 (MDL-2) Un (unsulfated) (protein)", "chain": "B5 chain"}, "B8": {"name": "SEQ ID No:1 (MDL-2) DS (sulfated at Y32 and Y35) (peptide)", "peptide": "B5 chain", "modifications": "not checked"}}, "key": {"[1]": {"molecular_target": "T1, human α-thrombin (Haematologic Technologies) (human), P00734", "assay": "inhibition of amidolytic activity of human α-thrombin (0.2 nM enzyme, chromogenic substrate Tos-Gly-Pro-Arg-pNA), tight-binding Morrison fit"}, "[2]": {"molecular_target": "T1, human α-thrombin (Haematologic …)", "assay": "thrombin inhibition; sulfated at Y33", "conditions": "chains peptide; modification not given"}, "[3]": {"molecular_target": "T1, human α-thrombin (Haematologic …)", "assay": "inhibition of amidolytic activity of human α-thrombin; reference is unsulfated SEQ ID No:2"}, "[4]": {"molecular_target": "T1, human α-thrombin (Haematologic …)", "assay": "thrombin inhibition; sulfated at Y33 and Y36", "conditions": "chains peptide; modification not given"}, "[5]": {"molecular_target": "T1, human α-thrombin (Haematologic …)", "assay": "thrombin inhibition; sulfated at Y36", "conditions": "chains peptide; modification not given"}, "[6]": {"molecular_target": "T1, human α-thrombin (Haematologic …)", "assay": "thrombin inhibition; unsulfated; unit from column head of Figure 1 table", "conditions": "chains peptide; modification not given"}, "[7]": {"molecular_target": "T1, human α-thrombin (Haematologic …)", "assay": "thrombin inhibition; sulfated at Y32", "conditions": "chains peptide; modification not given"}, "[8]": {"molecular_target": "T1, human α-thrombin (Haematologic …)", "assay": "thrombin inhibition; sulfated at Y35", "conditions": "chains peptide; modification not given"}, "[9]": {"molecular_target": "T1, human α-thrombin (Haematologic …)", "assay": "thrombin inhibition; unsulfated", "conditions": "chains peptide; modification not given"}, "[10]": {"molecular_target": "T1, human α-thrombin (Haematologic …)", "assay": "inhibition of amidolytic activity of human α-thrombin; reference is unsulfated SEQ ID No:1"}, "[11]": {"molecular_target": "T1, human α-thrombin (Haematologic …)", "assay": "thrombin inhibition; sulfated at Y32 and Y35", "conditions": "chains peptide; modification not given"}}, "data": [{"binder": "B1", "values": [{"measurement": "Ki", "setting": "[1]", "result": "< 20", "unit": "nM"}, {"measurement": "Ki", "setting": "[2]", "result": 3.59, "unit": "nM"}]}, {"binder": "B2", "values": [{"measurement": "fold more potent than the unsulfated counterpart", "setting": "[3]", "result": 10, "unit": "fold"}, {"measurement": "Ki", "setting": "[1]", "result": "< 20", "unit": "nM"}, {"measurement": "Ki", "setting": "[4]", "result": 2.06, "unit": "nM"}]}, {"binder": "B3", "values": [{"measurement": "Ki", "setting": "[1]", "result": "< 20", "unit": "nM"}, {"measurement": "Ki", "setting": "[5]", "result": 17.6, "unit": "nM"}]}, {"binder": "B4", "values": [{"measurement": "Ki", "setting": "[6]", "result": 73.8, "unit": "nM"}]}, {"binder": "B5", "values": [{"measurement": "Ki", "setting": "[7]", "result": 1.99, "unit": "nM"}, {"measurement": "Ki", "setting": "[1]", "result": "< 3", "unit": "nM"}]}, {"binder": "B6", "values": [{"measurement": "Ki", "setting": "[8]", "result": 2.77, "unit": "nM"}, {"measurement": "Ki", "setting": "[1]", "result": "< 3", "unit": "nM"}]}, {"binder": "B7", "values": [{"measurement": "Ki", "setting": "[9]", "result": 27.2, "unit": "nM"}]}, {"binder": "B8", "values": [{"measurement": "fold more potent than the unsulfated counterpart", "setting": "[10]", "result": "> 100", "unit": "fold"}, {"measurement": "Ki", "setting": "[11]", "result": 0.156, "unit": "nM"}, {"measurement": "Ki", "setting": "[1]", "result": "< 3", "unit": "nM"}]}]}
